Test results: paper PMC3742808
Read-outs that look alike come from different tables or passages of the source.

Assays:
[1] = target: recombinant human APC/C (without CDH1) (human) (UniProt Q9H1A4); assay: enzyme inhibition
[2] = target: recombinant human APC/C (without CDH1) (human) (UniProt Q9H1A4); assay: enzyme inhibition; remark: listed apart in the source

Ki [1]: 48 µM
Ki [2]: 13 µM
Substance: EMI1^T (synthetic peptide corresponding to the EMI1 C-terminal tail)
